Experiment [1] addresses human MMP-2 (gelatinase A) (human) (UniProt P08253). Nature of the experiment: enzyme inhibition assay (quenched fluorescent peptide substrate); 60/60/250/500 nM MMP-1/-2/-7/-14cd incubated with 0.98-1000 nM (N-)TIMPs for 30 min at room temperature, then 1 uM M-2350 substrate; KI from the equation for slow tight-binding inhibitors.
For experiment [2], the target named is human MMP-1 (collagenase 1) (human) (UniProt P03956). The description is as above.
The target in experiment [3] is human MMP-7 (matrilysin) (human) (UniProt P09237). Described as above.
Sequence of UniProt P09237 (P09237 95-267): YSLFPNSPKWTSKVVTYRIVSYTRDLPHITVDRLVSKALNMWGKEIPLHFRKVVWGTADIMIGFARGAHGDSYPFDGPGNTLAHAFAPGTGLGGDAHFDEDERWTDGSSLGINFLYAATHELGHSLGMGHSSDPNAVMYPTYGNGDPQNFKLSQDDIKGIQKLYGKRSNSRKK
Experiment [4] has as its target catalytic domain of human MMP-14 (cdMMP-14) (human) (UniProt P50281). The experiment is described as above.
Experiment [5] deals with human MMP-2 (gelatinase A) (human) (UniProt P08253).
Experiment [6] deals with catalytic domain of human MMP-14 (cdMMP-14) (human) (UniProt P50281).
Experiment [7] deals with human MMP-1 (collagenase 1) (human) (UniProt P03956).
Experiment [8] addresses human MMP-7 (matrilysin) (human) (UniProt P09237).

Experimental findings from PMC5410052 are described below.

Sequence of UniProt P08253 (P08253 110-660): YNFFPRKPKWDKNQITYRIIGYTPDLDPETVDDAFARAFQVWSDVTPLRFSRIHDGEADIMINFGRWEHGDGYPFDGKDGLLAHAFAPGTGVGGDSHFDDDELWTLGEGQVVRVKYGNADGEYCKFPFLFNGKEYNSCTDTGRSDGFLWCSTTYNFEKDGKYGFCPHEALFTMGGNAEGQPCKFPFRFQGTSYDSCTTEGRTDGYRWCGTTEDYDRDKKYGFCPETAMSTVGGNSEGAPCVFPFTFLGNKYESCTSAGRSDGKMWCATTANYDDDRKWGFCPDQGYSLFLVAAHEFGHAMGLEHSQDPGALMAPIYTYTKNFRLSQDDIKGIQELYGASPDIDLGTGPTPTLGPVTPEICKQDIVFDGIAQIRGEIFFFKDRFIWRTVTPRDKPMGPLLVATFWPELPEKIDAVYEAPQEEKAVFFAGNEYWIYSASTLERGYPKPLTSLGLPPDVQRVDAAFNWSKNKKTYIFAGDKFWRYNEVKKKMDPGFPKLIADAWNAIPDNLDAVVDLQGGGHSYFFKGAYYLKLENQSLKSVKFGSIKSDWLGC
Sequence of UniProt P03956 (P03956 100-469): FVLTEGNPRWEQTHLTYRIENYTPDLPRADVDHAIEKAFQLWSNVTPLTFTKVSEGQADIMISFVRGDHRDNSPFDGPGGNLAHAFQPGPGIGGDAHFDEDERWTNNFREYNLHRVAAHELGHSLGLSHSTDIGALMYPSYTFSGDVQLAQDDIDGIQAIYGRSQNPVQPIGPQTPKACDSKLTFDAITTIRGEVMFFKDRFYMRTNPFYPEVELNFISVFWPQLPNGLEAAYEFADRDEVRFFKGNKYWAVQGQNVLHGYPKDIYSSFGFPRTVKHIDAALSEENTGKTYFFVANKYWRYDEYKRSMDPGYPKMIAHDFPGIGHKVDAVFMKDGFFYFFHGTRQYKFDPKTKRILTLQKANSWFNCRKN

Turning to “N-terminal domain of human TIMP-1 (N-TIMP-1) (domain or fragment)”, the Ki in experiment [1] came to 11 nM; in experiment [2] it was 7.21 nM; in experiment [3], 4.62 nM.
Take “N-terminal domain of human TIMP-2 (N-TIMP-2) (domain or fragment)”: the Ki in experiment [1] was found to be 0.8 nM; in experiment [4], 3.96 nM; in experiment [2] it was 0.65 nM; in experiment [3] it was 2.86 nM. The substance further gave an IC50 of inhibition of MMP-2 cleavage of a quenched fluorescent peptide substrate in experiment [5] of 6 nM. In experiment [6], this substance had an IC50 of inhibition of cdMMP-14 cleavage of a quenched fluorescent peptide substrate of 72 nM. This substance yielded an IC50 of inhibition of MMP-1 cleavage of a quenched fluorescent peptide substrate in experiment [7] of 3 nM. Further, the IC50 of inhibition of MMP-7 cleavage of a quenched fluorescent peptide substrate in experiment [8] was determined as 38 nM.

The term Ki denotes a dissociation constant, usually derived from enzyme kinetics or from competition with a known ligand. Higher therefore signals lower affinity.
